Biological target: T1, Fkh1-DBD (Saccharomyces cerevisiae, UniProt P40466 299-421)
T1 sequence: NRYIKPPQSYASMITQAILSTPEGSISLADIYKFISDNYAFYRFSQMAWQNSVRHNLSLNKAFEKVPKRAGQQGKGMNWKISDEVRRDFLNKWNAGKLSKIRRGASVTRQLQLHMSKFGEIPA
Assay: X-ray crystallography

B1: 19-bp DNA binding oligo (dsDNA)
DNA 1: CGAAATGTAAACATACCGC
DNA 2: GCGGTATGTTTACATTTCG
binding result: binds
